This note sets out measurements from publication PMC5657617, “The GYF domain protein PSIG1 dampens the induction of cell death during plant-pathogen interactions” (PLoS Genetics, 2017).

B1: HisMBP-SMG7 (natural protein, Arabidopsis thaliana, UniProt A9QM73 1-1059, looked up)
chain: MMTLQMDKTTASSSWERAKSIYDEIAELANKRQKAGNPPDPNLLQLLREKYEAIILESHTFSEQHNIEIPLWQLHYKRIEYFRLHINRVLASSTSTAAQNVKGPSKAEQIAQLKLQFRTFLSEATGFYHDMILKIRSKYGLPLGSFSEDQQSQNLSDKDGKELAEVQKALKSCHRCLIYLGDLARYKGMYAEGDSRSRQYASASSYYLQAASLWPASGNPHHQLAIVASYSRDEFVTTYRYFRSLAVEYPFPTARDNLIVAFDKNRQSYEKLFVPSKDSSKRLTGKGRGKGADISLKDATLVAGPEKDKVTIANEMLKAFSIRFVHLNGILFTRTSLETFFDVLASTSSSLREVISLGSAKELTLGIDTSDSALFIVRVVTMLIFSVHNSKKETEGQSYAEIVQRVEPARNSLTASFELLGLVIEKCVQLGDPSSSYFLPGVLVFVEWLACCPDIALGSDPDDRQTAVRNSFWNQFVVFFNQVLSLGPTFIDDVEDETCFSNMSLYDERETENRLALWEDYELRGFLPLLPAQTILNFSRKHSFGTEGPKEKKARIKRIFAAGKALTSVIKVDQNHVYFDSKKKKFLVGVKPADDFLDSHSSPPKACNALQDNQVMIDHNSPIMQLDQQIYMGEEDDDDEVIVFKPLVTEKRKEASDQIYVPSGGFRKSDQVTTMGDFKALSGSDVAFHENQILQARGNASIQVPASVGANLLGPLQPSTQSQAMHMQQVQTQVQVPASVGANLLGLLLTSTQSQAMHMQQVQTQAVNPQPAQSLAASRLQPIQSQVAQPLPSRVVHFQQTQAQVSHVSPAHSQSTSFGGGSKWSPEEAASLASSLSGFAQLGNGHVMRNEMQGNHGVSYYPAHSLPVHQSYNGNGMGGMPYSQSRTPEAVFPPKIDPVLSSGVVADGLGVQSSLAKKNPISRAFRHLGPPPGFNSVPAKLQKEPAPGSELSGNNHLPVDDYSWLDGYQAQSSRGVGLNSSLNYATSGKPEHLGSTGNGLNGPANFPFPGKQVPTSQVQADFPYFQNPQKDNFVDKNHQSTQLPEQYQGQSTWSSRHFV
notes: SMG7, Arabidopsis thaliana, At5g19400; open reading frame amplified from Arabidopsis seedling (Col-8) cDNA; residues 1-1059 by the limits of its two halves; also called AtSMG7; HisMBP-tagged SMG7; source: Escherichia coli Rosetta-gami 2 (DE3), purified (Dextrin-Sepharose)
B2: GST-PSIG1^1-606 (domain or fragment)
chain: not shown
notes: PSIG1, Arabidopsis thaliana, At5g42950, residues 1-606, with the GYF domain and without its own PPGF motif; Vector pGEX4T-3; source: Escherichia coli Rosetta-gami 2 (DE3), purified (Glutathione-Sepharose)
B3: HisMBP-SMG7-C (domain or fragment, Arabidopsis thaliana, UniProt A9QM73 549-1059, looked up)
chain: PKEKKARIKRIFAAGKALTSVIKVDQNHVYFDSKKKKFLVGVKPADDFLDSHSSPPKACNALQDNQVMIDHNSPIMQLDQQIYMGEEDDDDEVIVFKPLVTEKRKEASDQIYVPSGGFRKSDQVTTMGDFKALSGSDVAFHENQILQARGNASIQVPASVGANLLGPLQPSTQSQAMHMQQVQTQVQVPASVGANLLGLLLTSTQSQAMHMQQVQTQAVNPQPAQSLAASRLQPIQSQVAQPLPSRVVHFQQTQAQVSHVSPAHSQSTSFGGGSKWSPEEAASLASSLSGFAQLGNGHVMRNEMQGNHGVSYYPAHSLPVHQSYNGNGMGGMPYSQSRTPEAVFPPKIDPVLSSGVVADGLGVQSSLAKKNPISRAFRHLGPPPGFNSVPAKLQKEPAPGSELSGNNHLPVDDYSWLDGYQAQSSRGVGLNSSLNYATSGKPEHLGSTGNGLNGPANFPFPGKQVPTSQVQADFPYFQNPQKDNFVDKNHQSTQLPEQYQGQSTWSSRHFV
notes: also called AtSMG7-C (549-1059); C-terminal half of SMG7; source: Escherichia coli Rosetta-gami 2 (DE3), purified (Dextrin-Sepharose)

Assay [1] deals with T1, GST-PSIG1 (PLANT SMY2-TYPE ILE-GYF DOMAIN-CONTAINING PROTEIN 1, full length) (Arabidopsis thaliana, UniProt Q9FMM3 1-1714).
T1 construct: PSIG1 (EXA1/MUSE11), Arabidopsis thaliana, At5g42950; whole ORF cloned into pGEX4T-3; the text calls it full-length PSIG1; Vector pGEX4T-3, cloned between SalI and NotI sites; also called GST-tagged PSIG1; EXA1; source: Escherichia coli Rosetta-gami 2 (DE3), purified (Glutathione-Sepharose)
Kind of assay: pull-down; GST-PSIG1 proteins and HisMBP-SMG7 proteins mixed in 50 mM Tris-HCl pH 7.5, 150 mM NaCl, 1 mM DTT, 0.1% Triton X-100; Glutathione-Sepharose beads, 2 h at 4°C; washed three times with 300 mM NaCl buffer; detected by anti-His or anti-GST immunoblot or CBB. Particulars: both partners purified.

For assay [2], the target named is B1. The assay is described as above. The conditions noted are these: both partners purified.

T1 sequence (Q9FMM3 whole entry, the tested form may be a part): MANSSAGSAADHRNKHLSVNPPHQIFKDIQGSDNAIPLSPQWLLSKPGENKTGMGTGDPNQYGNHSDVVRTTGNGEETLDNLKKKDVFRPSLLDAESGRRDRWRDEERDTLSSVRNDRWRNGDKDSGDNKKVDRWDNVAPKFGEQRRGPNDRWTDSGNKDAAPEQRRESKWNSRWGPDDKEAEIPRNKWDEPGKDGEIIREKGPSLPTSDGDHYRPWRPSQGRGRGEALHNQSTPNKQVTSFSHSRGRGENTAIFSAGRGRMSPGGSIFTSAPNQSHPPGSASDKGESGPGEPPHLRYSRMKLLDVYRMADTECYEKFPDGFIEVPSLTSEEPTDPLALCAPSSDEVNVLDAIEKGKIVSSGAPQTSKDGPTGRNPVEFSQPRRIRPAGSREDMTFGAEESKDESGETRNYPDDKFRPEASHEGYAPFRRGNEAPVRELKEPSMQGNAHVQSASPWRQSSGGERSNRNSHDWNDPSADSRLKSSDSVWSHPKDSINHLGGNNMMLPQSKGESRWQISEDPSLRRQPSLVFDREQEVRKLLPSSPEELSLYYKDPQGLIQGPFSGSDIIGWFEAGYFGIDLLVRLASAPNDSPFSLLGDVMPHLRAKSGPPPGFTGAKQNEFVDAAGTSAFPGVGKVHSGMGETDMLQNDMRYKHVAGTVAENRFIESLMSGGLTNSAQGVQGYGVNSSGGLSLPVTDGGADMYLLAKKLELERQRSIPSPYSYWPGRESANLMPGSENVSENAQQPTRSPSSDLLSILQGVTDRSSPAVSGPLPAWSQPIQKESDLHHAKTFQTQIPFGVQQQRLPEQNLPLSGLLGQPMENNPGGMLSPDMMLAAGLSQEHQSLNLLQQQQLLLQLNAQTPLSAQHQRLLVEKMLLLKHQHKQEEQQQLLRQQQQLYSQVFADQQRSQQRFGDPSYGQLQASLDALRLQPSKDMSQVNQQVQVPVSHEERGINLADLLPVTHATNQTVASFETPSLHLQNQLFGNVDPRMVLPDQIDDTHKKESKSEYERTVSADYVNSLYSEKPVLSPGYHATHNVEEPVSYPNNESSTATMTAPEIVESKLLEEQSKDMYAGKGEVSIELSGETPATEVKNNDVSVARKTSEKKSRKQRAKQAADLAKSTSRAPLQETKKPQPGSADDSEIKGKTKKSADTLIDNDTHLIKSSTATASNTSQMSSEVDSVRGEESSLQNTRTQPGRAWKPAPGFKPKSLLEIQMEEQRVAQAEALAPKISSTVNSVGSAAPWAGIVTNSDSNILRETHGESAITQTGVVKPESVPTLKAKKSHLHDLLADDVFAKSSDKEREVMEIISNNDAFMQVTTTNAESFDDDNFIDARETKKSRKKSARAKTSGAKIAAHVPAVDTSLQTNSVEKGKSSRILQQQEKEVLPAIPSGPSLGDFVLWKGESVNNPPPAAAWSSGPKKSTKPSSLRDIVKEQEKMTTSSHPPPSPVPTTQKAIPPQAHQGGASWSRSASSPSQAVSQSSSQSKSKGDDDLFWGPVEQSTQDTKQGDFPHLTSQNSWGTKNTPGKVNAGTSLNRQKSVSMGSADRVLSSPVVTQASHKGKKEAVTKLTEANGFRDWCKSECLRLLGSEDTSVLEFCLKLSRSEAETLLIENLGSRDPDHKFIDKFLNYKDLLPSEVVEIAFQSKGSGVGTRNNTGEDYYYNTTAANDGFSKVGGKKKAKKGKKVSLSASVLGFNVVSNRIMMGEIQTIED

For B1, the binding result in assay [1] was “binds”.
For B2, the binding result in assay [2] was “binds”.
Consider B3, for which, in assay [1], the binding result is listed as “binds”.
